The target in assay [1] is T1, recombinant MAGEA3 protein (human, UniProt P43357 1-314).
T1 construct: In Experiment 4C MAGEA3 was also expressed in transiently transfected HEK293T cells (fixed and permeabilized); also called His-tagged MAGEA3; CT1.3
The assay can be described thus: ELISA, recombinant MAGEA3 coated to plastic, serial dilutions of antibody, OD 450 nm. On the procedure: FIG. 4 EC50 determination of recombinant human monoclonal antibodies to MAGEA3. MAGEA3-ELISA was carried out using recombinant MAGEA3 coated to plastic and serial dilutions of the human monoclonal antibodies 21B4, 54B4, 94G11, 9A5, 31H10, 43B10, 2G4, 20C10, 26C9 and 4D6 (A-J). EC50 values are indicated in each figure.
(§1) The EC₅₀, the concentration at which half-maximal binding of the antibody to its antigen is observed was determined in MAGEA3 ELISA using serial dilutions of the human monoclonal antibodies 21B4, 54B4, 94G11, 9A5, 31H10, 43B10, 2G4, 20C10, 26C9 and 4D6. EC50 values were determined mathematically by derivation of the best-fit line using GraphPad software.
(In general: An ELISA detects its analyte on a solid surface through an enzyme-linked reagent.)

Another assay deals with T2, recombinant MAGEA1 (UniProt P43355 1-309, limits assumed).
T2 construct: also called CT1.1
T2 sequence (looked up): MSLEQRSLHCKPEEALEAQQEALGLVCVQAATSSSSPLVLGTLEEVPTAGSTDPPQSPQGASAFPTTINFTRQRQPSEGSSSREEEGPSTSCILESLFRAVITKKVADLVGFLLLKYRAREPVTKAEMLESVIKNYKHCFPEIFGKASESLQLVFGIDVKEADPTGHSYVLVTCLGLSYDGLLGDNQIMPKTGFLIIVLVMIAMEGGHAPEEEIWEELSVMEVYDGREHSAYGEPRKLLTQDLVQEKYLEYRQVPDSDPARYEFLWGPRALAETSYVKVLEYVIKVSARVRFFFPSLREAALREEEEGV
Nature of the assay: ELISA on coated recombinant MAGEA proteins, serial dilutions of antibody (concentrations not printed on the sheet). How it is done: (§2) Recombinantly expressed MAGEA3, MAGEA1, MAGEA4, MAGEA10 were coated on ELISA plates and binding of MAGEA3 antibodies 21B4, 94G11, 2G4, 9A5 and 54B4 to these proteins was tested. The results are depicted in FIG. 3B).

The target in a further assay is T3, recombinant MAGEA10 (UniProt P43363 1-369, limits assumed).
T3 construct: also called CT1.10
T3 sequence (P43363 whole entry): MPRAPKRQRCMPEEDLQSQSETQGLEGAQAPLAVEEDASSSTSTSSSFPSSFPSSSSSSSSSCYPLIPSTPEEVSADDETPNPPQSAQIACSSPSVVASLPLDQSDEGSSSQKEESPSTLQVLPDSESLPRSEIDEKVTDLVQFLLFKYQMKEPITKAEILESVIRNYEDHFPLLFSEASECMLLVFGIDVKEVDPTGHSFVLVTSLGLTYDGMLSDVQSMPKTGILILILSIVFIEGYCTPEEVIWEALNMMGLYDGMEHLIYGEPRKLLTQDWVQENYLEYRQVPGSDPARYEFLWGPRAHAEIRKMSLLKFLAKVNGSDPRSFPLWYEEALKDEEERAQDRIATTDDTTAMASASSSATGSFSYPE
Described as above. How it is done:
as §2

Another assay deals with T4, recombinant MAGEA4 (UniProt P43358 1-317, limits assumed).
T4 construct: also called CT1.4
T4 sequence (looked up): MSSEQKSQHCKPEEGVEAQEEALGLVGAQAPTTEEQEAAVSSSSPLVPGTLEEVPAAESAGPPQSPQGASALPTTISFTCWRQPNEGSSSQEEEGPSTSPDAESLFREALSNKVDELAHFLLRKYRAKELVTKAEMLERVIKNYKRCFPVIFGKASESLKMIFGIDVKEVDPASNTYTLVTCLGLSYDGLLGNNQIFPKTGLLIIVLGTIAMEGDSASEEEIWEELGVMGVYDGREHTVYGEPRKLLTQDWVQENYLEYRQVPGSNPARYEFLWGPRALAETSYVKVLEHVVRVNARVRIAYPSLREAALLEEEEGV
The assay can be described thus: Western blot; recombinant MAGEA4 in lane B, human antibody as probe. How it is done:
Membranes were incubated with human antibodies 21B4, 54B4, 94G11, 9A5, 31H10, 43B10, 2G4 or 20C10. Binding of human antibodies to proteins on the membrane was evaluated. The results are depicted in FIG. 3A).
(In general: Immunoblotting shows a protein as a band on a membrane.)

The target in the next assay is T5, MAGEA6 (UniProt P43360 1-314, limits assumed).
T5 construct: whole, on cells; Intracellular antigen: the transfected cells were fixed and permeabilized before staining; also called CT1.6
T5 sequence (P43360 whole entry): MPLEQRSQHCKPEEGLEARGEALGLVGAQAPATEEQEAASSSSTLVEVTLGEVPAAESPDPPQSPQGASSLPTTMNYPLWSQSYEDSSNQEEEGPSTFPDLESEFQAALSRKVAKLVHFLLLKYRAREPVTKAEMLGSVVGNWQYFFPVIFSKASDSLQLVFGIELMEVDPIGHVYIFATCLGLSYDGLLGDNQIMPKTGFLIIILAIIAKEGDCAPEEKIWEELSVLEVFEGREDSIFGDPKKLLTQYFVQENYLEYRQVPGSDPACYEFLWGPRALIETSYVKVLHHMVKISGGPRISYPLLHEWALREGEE
Nature of the assay: flow cytometry on fixed, permeabilized HEK293T cells transiently transfected with MAGEA6; PE-labeled anti-human antibody. On the procedure: HEK293T cells transiently transfected with MAGEA3 or MAGE A6 were fixed and permeabilized and incubated with human-derived antibodies. Binding of human-derived antibodies to the cells was detected by flow cytometry using PE-labeled anti-human antibodies. […] Filled histograms show binding of 21B4, 31H10, 94G11 and 54B4 to transiently transfected HEK 293 cells. Only a proportion of the cells was transfected resulting in a population expressing the transgene and in a population not expressing the transgene. […] The results are depicted in FIG. 3C).

Assay [2] deals with T1, recombinant MAGEA3 protein. Nature of the assay: ELISA, recombinant MAGEA3 coated to plastic, serial dilutions of antibody, OD 450 nm. On the procedure:
His-tagged MAGEA3 expressed in bacteria was column-purified and used to coat 96 well microplates (Costar, USA). Plates were washed with PBS-T and blocked 1 h at room temperature with PBS containing 2% BSA (Sigma, Buchs, Switzerland). Patient sera, B cell conditioned medium, or recombinant antibody preparations were incubated for 2 h at room temperature. Binding of human IgG to MAGEA3 was determined using a horseradish peroxidase conjugated goat anti human Fc-gamma-specific antibody (Jackson ImmunoResearch, Europe Ltd., Cambridgeshire, UK) followed by measurement of the HRP activity using a TMB substrate solution (TMB, Sigma, Buchs, Switzerland).
as §1
The source holds these as a separate data set.

For another assay, the target named is T6, MAGEA3 peptide No 10.
T6 construct: member of the group m18; also called 20mer peptide, amino acids 91-110 of MAGEA3
T6 peptide: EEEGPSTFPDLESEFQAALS
Nature of the assay: ELISA on plates coated with overlapping 20mer MAGEA3 peptides; antibody at 1 µg/ml; HRP goat anti-human IgG Fc-gamma. How it is done: (§3) 20mer peptides spanning the entire MAGEA3 protein with 10 aa overlaps shared by each adjacent peptide (Peptides&Elephants, Nuthetal, Germany) were used to coat Maxisorp ELISA plates (Nunc, Rochester, N.Y.). As control a 20mer peptide representing amino acids 40-21 from the NY-ESO-1 protein was used (rev). The numbering of amino acids of MAGEA3 is based on SEQ ID No.: 101.
(§4) Human recombinant antibody was used at a concentration of 1 μg/ml with the exception of antibody 9A5 which was used at […]. Bound human antibody was detected using horseradish peroxidase-conjugated goat anti-human IgG Fc-gamma specific antibodies (Jackson ImmunoResearch, Europe Ltd., Cambridgeshire, UK).

In a further assay the target is T7, MAGEA3 peptide No 5.
T7 construct: member of the group m18; also called 20mer peptide, amino acids 41-60 of MAGEA3
T7 peptide: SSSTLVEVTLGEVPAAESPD
The assay can be described thus: ELISA on plates coated with overlapping 20mer MAGEA3 peptides; antibody 9A5 at '4 mg/ml' as printed in paragraph 376; HRP goat anti-human IgG Fc-gamma. How it is done: as §3, §4

For another assay, the target named is T8, MAGEA3 peptide No 22.
T8 construct: member of the group m18; also called 20mer peptide, amino acids 211-230 of MAGEA3
T8 peptide: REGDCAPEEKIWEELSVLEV
Nature of the assay: ELISA on plates coated with overlapping 20mer MAGEA3 peptides; antibody at 1 µg/ml; HRP goat anti-human IgG Fc-gamma. How it is done: as §3, §4

Read-outs that look alike come from different tables or passages of the source.

T1 sequence (P43357 whole entry): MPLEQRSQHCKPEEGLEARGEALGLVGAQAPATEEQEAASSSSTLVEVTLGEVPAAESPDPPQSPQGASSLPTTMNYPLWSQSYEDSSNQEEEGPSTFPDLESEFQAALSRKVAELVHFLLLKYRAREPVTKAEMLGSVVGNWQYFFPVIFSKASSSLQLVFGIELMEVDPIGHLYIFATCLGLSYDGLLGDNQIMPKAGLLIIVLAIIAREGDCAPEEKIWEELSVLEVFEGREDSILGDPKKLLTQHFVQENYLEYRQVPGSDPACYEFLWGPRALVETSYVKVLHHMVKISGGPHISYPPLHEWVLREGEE

B1: 26C9 (antibody, V domains shown)
VH: QVQLVQSGAAVKKPGSSVKVSCTASGGTFGTSGITWVRQAPGQGLEWVGRVTPILGITRYAQRFQGRVTITADTSTSTAYMELSRLRSDDTALYYCARAPEMTINSDWGQGTLVTVSS
VL: QSALTQPASVSGSPGQSITISCTGTRSDVGGHNYVSWYQQDPDKAPKLIIYEVSKRPSGVSNRFSGSKSGNTASLTISGLQAEDEADYYCSSYTGTTILEVFGTGTTVTVL
As to B1, the EC50 (usually the concentration at which the effect is half-maximal) in [1] was 0.523 nM.

B2: 2G4 (antibody, V domains shown)
VH: QVQLVQSGAAVKKPGSSVKVSCTASGGTFGTSGITWVRQAPGQGLEWVGRITPILGITRYGQRFQGRVTITADKSTSTAYMELSRLRSDDTALYYCARAPEMTINSDWGQGTLVTVSS
VL: QSALTQPASVSGSPGQSITISCTGTRSDVGGHNYVSWYQHDPDKAPKLIIYEVSKRPSGISNRFSGSKSGNTASLTISGLQAEDEADYYCSSYTGSTILEVFGTGTTVTVL
With B2, the binding result with recombinant MAGEA1, with recombinant MAGEA10 and with recombinant MAGEA4 was “no binding” each time. Also, the concentration giving a half-maximal response (EC50) in assay [1] came out at 7.79 nM.

B3: 20C10 (antibody, V domains shown)
VH: QLQLQESGPGLVKPSETLSLTCTVSGDSISASTDSWGWIRQSPGKGLEWIGVTSYSGRPYYNPSLKRRVTISVDTSKNHFSLKLTSVTAADRALYYCARRPSLIWAFDIWGQGTMVTVSS
VL: QSALTQPASVSGSPEQSITISCTGTSSAVGNYNLVSWYQHHPGKAPLLIIYDVNERPSGVSHRFSGSRSGNTASLTISGLLAEDEADYFCCSYGGTSSLHYVFGTGTRVTVL
Consider B3, for which, in [1], the 50% effective concentration (EC50) came to 37.3 nM.

B4: 94G11 (antibody, V domains shown)
VH: QVLLQESGPGLVKPSQILSLTCTVSGGSNRSVSYYWSWIRQPAGQGLEWIGRIYPSGSTHYNPSLKSRVTISVDTSKNQFSLKLSSLTAADTAMYFCAWGGYDSLGGRRLRHFDYWGQGALVTVSS
VL: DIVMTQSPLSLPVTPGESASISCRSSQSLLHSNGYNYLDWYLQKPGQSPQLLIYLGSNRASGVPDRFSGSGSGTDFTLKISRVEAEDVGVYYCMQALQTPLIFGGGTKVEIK
Consider B4, for which the binding result with MAGEA6 is “binds”; in the assay with recombinant MAGEA1, “no binding”; in the assay with recombinant MAGEA10, “no binding”; with recombinant MAGEA4, “no binding”. In addition, the EC50 in assay [2] was determined as 0.129 nM.

B5: 31H10 (antibody, V domains shown)
VH: QVQLVESGGGVVQPGGSLRLSCAASDFTFSDHGMHWVRQAPGKGLQWVSFISHHGTNKYYIDSVKGRFIISRDNSKNTLYLQMNSLRTEDTAVYYCATVIGYFFGYGFDVWGQGTTVIVSS
VL: EIVMTQSPATLSVSPGEEINLACRASHSISGNLAWYQQKPGQGPRLLIYSASTRATGISARFSGSGSGTEFTLTISSLESEDFAVYFCQQYNNWPLTFGGGTKVEIK
Consider B5, for which the values for the binding result with MAGEA6, in the assay with recombinant MAGEA4 and in the assay with MAGEA3 peptide No 10 were “binds”, “no binding” and “binds”, respectively. Also, the EC50 in assay [1] stood at 0.0192 nM.

B6: 9A5 (antibody, V domains shown)
VH: EVQLVASGGVMVKPGGSLRLSCAASGFSFKNAWMTWVRQAPGMGLEWVGRITSKTDGETTDYAAPVKGRFTISRDDSKNILYLQMNSLKTEDTAVYYCATRTTVCYVCWGQGTLVTVSS
VL: DIVLTQSPDSLAVSQGERATINCKSSQSLLYSSNNKNYLAWFQQKPGQPPKLLIYWASTRESGVPDRFSGSGSGTDFTLTISSLQAEDVAVYYCQQYYTIGWTFGPGTKVEIK
Regarding B6, the binding result in the assay with recombinant MAGEA1 is given as “no binding”; with recombinant MAGEA10, “no binding”; in the assay with MAGEA3 peptide No 5 it was “binds”; with recombinant MAGEA4, “no binding”. In addition, in assay [1], the EC50 was found to be 0.259 nM.

B7: 4D6 (antibody, V domains shown)
VH: QVQLVESGGGVVQPGRSLRLSCAASGFSFSDYAMHWVRQAPGKGLEWVAVISYDGTKKYYADSVEGRLTISRDNSQNTLSLQMSGLRVEDKGVYYCARDGCDSARCSYGMDVWGQGTTVTVSS
VL: EIVMTQSPSSLSASVGDRVTITCRASQDIRNDLGWYQQKPGKAPKLLIYGASTLQSGVPSRFSGSGSGTDFTLTISSLQPEDFATYYCLQDYSYRWTFGQGTKVEIK
Regarding B7, the binding result in [2] is on record as “binds”.

B8: 54B4 (antibody, V domains shown)
VH: EVQLVESGGGLVPPGGSLRLSCAASGFTFTTYGLTWVRQAPGKGLEWISYITSSGTIIHYADSVKGRFTISRDNAKNSLYLQMNSLRAEDTAVYYCARGRRGTVVRGVMLDQWGQGTLVTVSS
VL: DIQMTQSPSTLSASIGDRVTITCRASQSISRWLAWYQQKPGQAPKLLIYEASSLESGVPSRFSGSGSGTEFTLTISSLQPDDFAIYYCQQYSSYSLTFGGGTKVEIK
With B8, the binding result with MAGEA6 is “binds”; with recombinant MAGEA4, “no binding”; with MAGEA3 peptide No 22, “binds”. Besides, the EC50 in [2] was determined as 0.029 nM.

B9: 43B10 (antibody, V domains shown)
VH: EVQLVESGGGLVPPGGSLRLSCAASGFTFTTYGLNWVRLAPGKGLEWISYITSSGTIIHYADSVKGRFTISRDNAKNSLYLQMNSLRAEDTAVYYCARGRRGTVVRGVMLDQWGQGTLVTVSS
VL: DIQMTQSPSTLSASIGDRVTIACRASQSISRWLAWYQQKPGQAPKLLIYEASSLESGVPSRFSGSGSGTEFTLTISSLQPDDFATYYCQQYSSYSLAFGGGTKVEIK
For the molecule B9, the binding result with MAGEA3 peptide No 22 is on record as “binds”. In assay [2], the EC50 was 0.109 nM.

The record behind these values is patent US20140093514A1 (UNIVERSITY OF ZURICH, published 2014).
